Reference: US20130316376A1 (SPIBER TECHNOLOGIES, published 2013)

Tests used:
[1] = target: T1, albumin from human blood plasma (human, UniProt P02768 25-609); assay: films incubated with human blood plasma, low pH elution, non-reducing SDS-PAGE
T1 construct: mature; Native plasma protein; also called human albumin

[2] = target: T2, albumin from rabbit serum (rabbit, UniProt P49065 25-608); assay: fibers incubated with rabbit serum, low pH elution, non-reducing SDS-PAGE
T2 construct: mature; Native serum protein; the form follows from the source (serum); also called albumin (~70 kDa)
T2 sequence (P49065 25-608): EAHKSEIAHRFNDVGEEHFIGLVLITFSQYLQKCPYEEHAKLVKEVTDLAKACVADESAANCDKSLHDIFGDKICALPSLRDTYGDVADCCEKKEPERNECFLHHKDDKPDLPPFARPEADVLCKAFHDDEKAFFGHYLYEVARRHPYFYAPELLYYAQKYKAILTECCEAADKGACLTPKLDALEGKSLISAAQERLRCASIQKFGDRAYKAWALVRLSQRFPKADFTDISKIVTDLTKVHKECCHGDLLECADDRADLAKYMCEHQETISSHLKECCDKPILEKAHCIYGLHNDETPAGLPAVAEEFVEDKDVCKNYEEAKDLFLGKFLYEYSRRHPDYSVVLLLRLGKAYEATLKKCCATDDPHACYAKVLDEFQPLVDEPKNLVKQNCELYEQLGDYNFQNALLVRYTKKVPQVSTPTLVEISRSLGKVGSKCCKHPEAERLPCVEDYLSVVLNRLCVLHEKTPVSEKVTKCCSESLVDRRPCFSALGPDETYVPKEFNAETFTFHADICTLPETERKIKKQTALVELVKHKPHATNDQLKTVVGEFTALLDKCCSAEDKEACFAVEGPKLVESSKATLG

Row | Binder | binding result [1] | binding result [2]
1 | His6AbdQGRep4CT (designed binder, tested as films and fibers; also called Abd-Rep4CT; HisAbdQG4RepCT) MGSSGHHHHHHMLAEAKVLANRELDKYGVSDYYKNLINNAKTVEGVKALIDEILAALPLEALFQGPNSGQGGYGGLGQGGYGQGAGSSAAAAAAAAAAAAGGQGGQGQGGYGQGSGGSAAAAAAAAAAAAAAAGRGQGGYGQGSGGNAAAAAAAAAAAAAAAGQGGQGGYGRQSQGAGSAAAAAAAAAAAAAAGSGQGGYGGQGQGGYGQSSASASAAASAASTVANSVSRLSSPSAVSRVSSAVSSLVSNGQVNMAALPNIISNISSSVSASAPGASGCEVIVQALLEVITALVQIVSSSSVGYINPSAVNQITNVVANAMAQVMG | binds | –
2 | Rep4CT (Protease 3C cleavage product of His6ZQGRep4CT) (other, made by cleaving His6ZQGRep4CT; also called GP-Rep4CT) GQGGYGGLGQGGYGQGAGSSAAAAAAAAAAAAGGQGGQGQGGYGQGSGGSAAAAAAAAAAAAAAAGRGQGGYGQGSGGNAAAAAAAAAAAAAAAGQGGQGGYGRQSQGAGSAAAAAAAAAAAAAAGSGQGGYGGQGQGGYGQSSASASAAASAASTVANSVSRLSSPSAVSRVSSAVSSLVSNGQVNMAALPNIISNISSSVSASAPGASGCEVIVQALLEVITALVQIVSSSSVGYINPSAVNQITNVVANAMAQVMG | – | binds
